Data taken from patent US8357523B2, “Beta-glucosidase variant enzymes and related polynucleotides” (Codexis, Inc., priority 2009, dated 2013).

Experiment: High throughput cellobiose assay: fold improvement in cellobiase activity of CelA variants over a control enzyme (Tables 2A-2D, 3, 5, 6, 7)
Assay type: biochemical
Conditions: 3.3 g/l cellobiose, 50° C. and pH 6.5; compared to native CelA (SEQ ID NO: 4)
Procedure: β-glucosidase activity was also determined using a cellobiose assay, which used cellobiose as substrate. In a total volume of 100 μL, 25 μL clear media supernatant containing CelA enzyme was added to 10 g/L cellobiose (Fluka Cat. No. 22150, Sigma-Aldrich, Inc., St. Louis, Mo.) in 100 mM sodium phosphate buffer (pH 6-7) or sodium acetate buffer (pH 5-5.5). The reaction was incubated at 45-70° C. for an appropriate time (25 minutes to overnight depending on the enzyme concentration) while shaking. Glucose production was determined using an enzymatic glucose assay (K-GLUC, Megazyme, Ireland). 10 μl of each reaction was added to 190 μl GOPOD reagent (supplied as part of the K-GLUC assay kit). The reaction was incubated at 45° C. for 20 minutes and the absorbance of the solution was measured at 510 nm. The GOPOD reagent contains 50 mM Potassium phosphate buffer pH7.4, 0.011M p-hydroxybenzoic acid, 0.008% w/v sodium azide, glucose oxidase (>12,000 U/L), peroxidase (>650 U/L) and 80 mg/L 4-aminoantipyrine. The glucose oxidase enzyme in the reagent reacts with any glucose present in the sample and produces hydrogen peroxide which then reacts with the 4-aminoantipyrine to produce a quinoneimine dye in quantities proportionate with the amount of glucose present and can be measured spectrophotometrically at 510 nm. Detectable β-glucosidase activity was observed under high throughput screening conditions (i.e., pH 7, 50° C.).
Plasmid libraries containing variant CelA genes were transformed into B. megaterium and plated on Luria-Bertani (LB) agar plates containing 3 μg/mL tetracycline with a DM3 regeneration media overlay (400 mM sodium succinate dibasic, pH 7.3, 0.5% casamino acids, 0.5% yeast extract, 0.4% K2HPO4, 0.2% KH2PO4, 20 mM MgCl2, 0.5% glucose and 0.2% BSA). After incubation for at least 18 hours at 30° C., colonies were picked using a Q-bot® robotic colony picker (Genetix USA, Inc., Beaverton, Oreg.) into shallow, 96-well well microtiter plates containing 180 μL, LB and 10 μg/mL tetracycline. Cells were grown overnight at 37° C. with shaking at 200 rpm and 85% humidity. 10 μL of this culture was then transferred into 96-well microtiter plates (deep well) containing 390 μL A5-glucose-xylose medium and 10 μg/mL tetracycline as described in example 2. The plates were then incubated at 37° C. with shaking at 250 rpm and 85% humidity overnight (˜18-24 hours). The deep plates were centrifuged at 4000 rpm for 15 minutes and the clear media supernatant containing the secreted CelA enzyme was used for the high throughput pNPG or cellobiose assay of Example 5.
The CelA libraries were screened in high throughput using the cellobiose assay of Example 5 (Substrate: cellobiose; pH: 5-7; temperature: 45-72° C.; time: 2-24 hrs) for the identification of improved variants.
In shallow, 96-well microtiter plates 25 μL of media supernatant was added to 75 μL of […] cellobiose in 150 mM sodium acetate buffer pH 5-5.5 or 150 mM sodium phosphate buffer pH6-7. After sealing with aluminum/polypropylene laminate heat seal tape (Velocity 11 (Menlo Park, Calif.), Cat#06643-001), the plates were shaken at 45-65° C. for up to 24 hrs. The plates were centrifuged for 5 minutes at 4000 rpm. In shallow well clear microtiter plates, 10 μL of the reaction mixture was added to 190 μL of GOPOD reagent (as in example 5B) per well. The solutions were incubated at 45° C. for 1 hour and absorbance was measured at 510 nm for the identification of active CelA variants.
Improved CelA variants were identified from the high throughput screening of various CelA variant libraries as described in Example 7, using the cellobiose assay of Example 5 using 3.3 g/l cellobiose at temperatures from 50°-55° C. at a pH in the range of 5.3-6.5. Tables 2A, 2B, 2C, and 2D and Table 3 depict the improvement in activities of CelA variants encompassed by the invention. The assay conditions are indicated in each table. […]

Molecule | Fold improvement over wildtype CelA
27 (protein) STAIAQEGAAPAAILHPEKWPRPATQRLIDPAVEKRVDALLKQLSVEEKVGQVIQGDIGTITPEDLRKYPLGSILAGGNSGPNGDDRAPPKEWLDLADAFYRVSLEKRPGHTPIPVLFGIDAVHGHGNIGSATIFPHNIALGATHDPELLRRIGEVTAVEMAATGIDWTFAPALSVVRDDRWGRTYEGFSEDPEIVAAYSAYIVEGVQGKFGSKDFMAPGRIVASAKHFLADGGTDQGRDQGDARISEDELIRIHNAGYPPAIDAGVLTVMASFSSWQGIKHHGHKQLLTDVLKGQMGFNGFIVGDWNAHDQVPGCTKFNCPTSLIAGLDMYMAADSWKQLYENTLAQVKDGTIPMARLDDAVRRILRVKVLAGLFEKPAPKDRPGLPGLETLGSPEHRAVGREAVRKSLVLLKNDKGTLPLSPKARVLVAGDGADNIGKQSGGWTISWQGTGNRNDEFPGATSILGGIRDAVADAGGSVEFDVAGQYKTKPDVAIVVFGEEPYAEFQGDVETLEYQPDQKQDLALLKKLKDQGIPVVAVFLSGRPMWVNPELNASDAFVAAWLPGTEGGGVADVLFTDKAGKVQHDFAGKLSYSWPRTAAQTTVNRGDADYNPLFAYGYGLTYKDKSKVGTLPEESGVPAEARQNAGIYFRAGALRLPGRFL | + (+ = 1.1 to 2.0 fold improvement over native CelA (SEQ ID NO: 4))
29 (protein) STAIAQEGAAPAAILHPEKWPRPATQRLIDPAVEKRVDALLKQLSVEEKVGQVIQGDIGTITPEDLRKYPLGSILAGGNSGPNGDDRAPPKEWLDLADAFYRVSLEKRPGHTPIPVLFGIDAVHGHGNIGSATIFPHNIALGATHDPELLRRIGEVTAVEMAATGIDWTFAPALSVVRDDRWGRTYEGFSEDPEIVAAYSPAIVEGVQGKFGSKDFMAPGRIVASAKHFLADGGTDQGRDQGDARISEDELIRIHNAGYPPAIDAGVLTVMASFSSWQGIKHHGHKQLLTDVLKGQMGFNGFIVGDWNAHDQVPGCTKFNCPTSLIAGLDMYMAADSWKQLYENTLAQVKDGTIPMARLDDAVRRILRVKVLAGLFEKPAPKDRPGLPGLETLGSPEHRAVGREAVRKSLVLLKNDKGTLPLSPKARVLVAGDGADNIGKQSGGWTISWQGTGNRNDEFPGATSILGGIRDAVADAGGSVEFDVAGQYKTKPDVAIVVFGEEPYAEFQGDVETLEYQPDQKQDLALLKKLKDQGIPVVAVFLSGRPMWVNPELNASDAFVAAWLPGTEGGGVADVLFTDKAGKVQHDFAGKLSYSWPRTAAQTTVNRGDADYNPLFAYGYGLTYKDKSKVGTLPEESGVPAEARQNAGIYFRAGALRLPGRFL | ++ (++ = 2.1 to 2.6 fold improvement over native CelA (SEQ ID NO: 4))
28 (protein) STAIAQEGAAPAAILHPEKWPRPATQRLIDPAVEKRVDALLKQLSVEEKVGQVIQGDIGTITPEDLRKYPLGSILAGGNSGPNGDDRAPPKEWLDLADAFYRVSLEKRPGHTPIPVLFGIDAVHGHGNIGSATIFPHNIALGATHDPELLRRIGEVTAVEMAATGIDWTFAPALSVVRDDRWGRTYEGFSEDPEIVAAYSAAIVEGVQGKWGSKDFMAPGRIVASAKHFLADGGTDQGRDQGDARISEDELIRIHNAGYPPAIDAGVLTVMASFSSWQGIKHHGHKQLLTDVLKGQMGFNGFIVGDWNAHDQVPGCTKFNCPTSLIAGLDMYMAADSWKQLYENTLAQVKDGTIPMARLDDAVRRILRVKVLAGLFEKPAPKDRPGLPGLETLGSPEHRAVGREAVRKSLVLLKNDKGTLPLSPKARVLVAGDGADNIGKQSGGWTISWQGTGNRNDEFPGATSILGGIRDAVADAGGSVEFDVAGQYKTKPDVAIVVFGEEPYAEFQGDVETLEYQPDQKQDLALLKKLKDQGIPVVAVFLSGRPMWVNPELNASDAFVAAWLPGTEGGGVADVLFTDKAGKVQHDFAGKLSYSWPRTAAQTTVNRGDADYNPLFAYGYGLTYKDKSKVGTLPEESGVPAEARQNAGIYFRAGALRLPGRFL | ++ (++ = 2.1 to 2.6 fold improvement over native CelA (SEQ ID NO: 4))
32 (protein) STAIAQEGAAPAAILHPEKWPRPATQRLIDPAVEKRVDALLKQLSVEEKVGQVIQGDIGTITPEDLRKYPLGSILAGGNSGPNGDDRAPPKEWLDLADAFYRVSLEKRPGHTPIPVLFGIDAVHGHGNIGSATIFPHNIALGATHDPELLRRIGEVTAVEMAATGIDWTFAPALSVVRDDRWGRTYEGFSEDPEIVAAYSAAIVEGVQGKFGSKDFMAPGRGVASAKHFLADGGTDQGRDQGDARISEDELIRIHNAGYPPAIDAGVLTVMASFSSWQGIKHHGHKQLLTDVLKGQMGFNGFIVGDWNAHDQVPGCTKFNCPTSLIAGLDMYMAADSWKQLYENTLAQVKDGTIPMARLDDAVRRILRVKVLAGLFEKPAPKDRPGLPGLETLGSPEHRAVGREAVRKSLVLLKNDKGTLPLSPKARVLVAGDGADNIGKQSGGWTISWQGTGNRNDEFPGATSILGGIRDAVADAGGSVEFDVAGQYKTKPDVAIVVFGEEPYAEFQGDVETLEYQPDQKQDLALLKKLKDQGIPVVAVFLSGRPMWVNPELNASDAFVAAWLPGTEGGGVADVLFTDKAGKVQHDFAGKLSYSWPRTAAQTTVNRGDADYNPLFAYGYGLTYKDKSKVGTLPEESGVPAEARQNAGIYFRAGALRLPGRFL | + (+ = 1.1 to 2.0 fold improvement over native CelA (SEQ ID NO: 4))
31 (protein) STAIAQEGAAPAAILHPEKWPRPATQRLIDPAVEKRVDALLKQLSVEEKVGQVIQGDIGTITPEDLRKYPLGSILAGGNSGPNGDDRAPPKEWLDLADAFYRVSLEKRPGHTPIPVLFGIDAVHGHGNIGSATIFPHNIALGATHDPELLRRIGEVTAVEMAATGIDWTFAPALSVVRDDRWGRTYEGFSEDPEIVAQYSAAIVEGVQGKFGSKDFMAPGRIVASAKHFLADGGTDQGRDQGDARISEDELIRIHNAGYPPAIDAGVLTVMASFSSWQGIKHHGHKQLLTDVLKGQMGFNGFIVGDWNAHDQVPGCTKFNCPTSLIAGLDMYMAADSWKQLYENTLAQVKDGTIPMARLDDAVRRILRVKVLAGLFEKPAPKDRPGLPGLETLGSPEHRAVGREAVRKSLVLLKNDKGTLPLSPKARVLVAGDGADNIGKQSGGWTISWQGTGNRNDEFPGATSILGGIRDAVADAGGSVEFDVAGQYKTKPDVAIVVFGEEPYAEFQGDVETLEYQPDQKQDLALLKKLKDQGIPVVAVFLSGRPMWVNPELNASDAFVAAWLPGTEGGGVADVLFTDKAGKVQHDFAGKLSYSWPRTAAQTTVNRGDADYNPLFAYGYGLTYKDKSKVGTLPEESGVPAEARQNAGIYFRAGALRLPGRFL | + (+ = 1.1 to 2.0 fold improvement over native CelA (SEQ ID NO: 4))
30 (protein) STAIAQEGAAPAAILHPEKWPRPATQRLIDPAVEKRVDALLKQLSVEEKVGQVIQGDIGTITPEDLRKYPLGSILAGGNSGPNGDDRAPPKEWLDLADAFYRVSLEKRPGHTPIPVLFGIDAVHGHGNIGSATIFPHNIALGATHDPELLRRIGDVTAVEMAATGIDWTFAPALSVVRDDRWGRTYEGFSEDPEIVAAYSAAIVEGVQGKFGSKDFMAPGRIVASAKHFLADGGTDQGRDQGDARISEDELIRIHNAGYPPAIDAGVLTVMASFSSWQGIKHHGHKQLLTDVLKGQMGFNGFIVGDWNAHDQVPGCTKFNCPTSLIAGLDMYMAADSWKQLYENTLAQVKDGTIPMARLDDAVRRILRVKVLAGLFEKPAPKDRPGLPGLETLGSPEHRAVGREAVRKSLVLLKNDKGTLPLSPKARVLVAGDGADNIGKQSGGWTISWQGTGNRNDEFPGATSILGGIRDAVADAGGSVEFDVAGQYKTKPDVAIVVFGEEPYAEFQGDVETLEYQPDQKQDLALLKKLKDQGIPVVAVFLSGRPMWVNPELNASDAFVAAWLPGTEGGGVADVLFTDKAGKVQHDFAGKLSYSWPRTAAQTTVNRGDADYNPLFAYGYGLTYKDKSKVGTLPEESGVPAEARQNAGIYFRAGALRLPGRFL | + (+ = 1.1 to 2.0 fold improvement over native CelA (SEQ ID NO: 4))
